The text below walks through data of patent US20190367612A1 (Daiichi Sankyo, published 2019).

For test [1], the target named is T1, mouse GPRC5D (mouse, UniProt Q9JIL6 1-344).
T1 construct: whole, on cells
T1 sequence (looked up): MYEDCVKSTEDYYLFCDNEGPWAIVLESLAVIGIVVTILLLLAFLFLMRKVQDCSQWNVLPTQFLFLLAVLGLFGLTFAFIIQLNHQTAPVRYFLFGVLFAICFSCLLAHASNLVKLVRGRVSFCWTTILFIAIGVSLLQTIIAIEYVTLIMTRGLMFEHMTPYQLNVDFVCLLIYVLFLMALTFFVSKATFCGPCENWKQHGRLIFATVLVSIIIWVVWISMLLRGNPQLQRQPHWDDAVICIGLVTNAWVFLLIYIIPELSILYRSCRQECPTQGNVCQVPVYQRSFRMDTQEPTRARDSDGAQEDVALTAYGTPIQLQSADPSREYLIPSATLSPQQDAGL
As to the kind of experiment: flow cytometry, in the same way as in Example 5)-2. On the technique in general: Flow cytometry measures light scatter and fluorescence of single cells or particles in a stream.

In test [2] the target is T2, human GPRC5D (human, UniProt Q9NZD1 1-345).
T2 construct: whole, on cells; also called hGPRC5D; G-protein coupled receptor family C group 5 member D
The test is described as follows: flow cytometry on KHM-1B cells (human GPRC5D), PE anti-human IgG Fc, rMFI over human IgG isotype control.

Test [3] has as its target T2, human GPRC5D. The test is described as follows: flow cytometry on KHM-1B cells (human GPRC5D), culture supernatant, PE anti-human IgG Fc, rMFI over human IgG isotype control. The protocol:
Human multiple myeloma cell line KHM-1B cells expressing GPRC5D were adjusted to a concentration of 2×10⁶ cells/mL with PBS containing 5% FBS, inoculated in an amount of 100 μL/well to a 96-well U-bottomed microplate, and centrifuged to remove a supernatant. The culture supernatant of each humanized anti-GPRC5D antibody obtained in Example 8)-3-1 or Human IgG isotype control antibody (Calbiochem/Merck Millipore Corp.) adjusted to 14 ng/mL to 30 μg/mL was added thereto in an amount of 100 μL/well, and the plate was left standing at 4° C. for 1 hour. The cells were washed twice with PBS containing 5% FBS. Then, R-Phycoerythrin AffiniPure F(ab′)2 Fragment Goat Anti-Human IgG, Fcγ Fragment Specific (Jackson ImmunoResearch Laboratories, Inc.) diluted 100-fold with PBS containing 5% FBS was added thereto in an amount of 100 μL/well, and the plate was left standing at 4° C. for 1 hour. The cells were washed twice with PBS containing 5% FBS and then resuspended in PBS containing 5% FBS, followed by detection using a flow cytometer (FACSCanto™ II; Becton, Dickinson and Company). The data was analyzed using Flowjo (Tree Star, Inc.). The PE fluorescence intensity of the cell fraction was plotted to a histogram, and the mean fluorescence intensity (MFI) was calculated. The MFI value of the control antibody was subtracted from the MFI value of the GPRC5D antibody to calculate a relative value of MFI (rMFI).

Test [4] addresses T3, cynomolgus monkey GPRC5D (cynomolgus monkey).
T3 construct: whole, on cells; Stably expressed on KMS-11 cells (KMS-11_cGPRC5D); also called cGPRC5D
The test is described as follows: flow cytometry on KMS-11_cGPRC5D cells (cynomolgus monkey GPRC5D), PE anti-human IgG Fc detection, rMFI = MFI minus isotype control [label at the foot of D00092].

For test [5], the target named is T2, human GPRC5D. As to the kind of experiment: flow cytometry on A4/Fuk cells (endogenous human GPRC5D), Penta-His Alexa Fluor 488 detection, rMFI = MFI minus sample without antibody. The method, then: Lymphoma cell line A4/Fuk cells (JCRB Cell Bank) were adjusted to an appropriate concentration with PBS containing 5% FBS. LIVE/DEAD Fixable Near-IR Dead Cell Stain Kit was added to the cells, which were then left standing at 4° C. for 30 minutes. The cells were washed twice with PBS containing 5% FBS, then adjusted to a concentration of 1×10⁶ cells/mL with PBS containing 5% FBS, inoculated in an amount of 100 μL/well to a 96-well U-bottomed microplate, and centrifuged to remove a supernatant. Each anti-GPRC5D-anti-CD3 bispecific molecule (C2037-C3E7034 to C3022-C3E7036 prepared in Example 12) diluted with PBS containing 5% FBS were added thereto in an amount of 100 μL/well, and the plate was left standing at 4° C. for 60 minutes. The cells were washed twice with PBS containing 5% FBS. Then, Penta-His Alexa Fluor 488 diluted with PBS containing 5% FBS was added thereto in an amount of 30 μL/well, and the plate was left standing at 4° C. for 30 minutes. The cells were washed twice with PBS containing 5% FBS and then resuspended in PBS containing 5% FBS, followed by detection using a flow cytometer (FACSCanto™ II). The data was analyzed using Flowjo. The mean fluorescence intensity (MFI) of Alexa Fluor 488 in a fraction free from dead cells was calculated. The MFI value of the antibody-unsupplemented sample was subtracted from the MFI value of the antibody-supplemented sample to calculate a relative value of MFI (rMFI).

Test [6] has as its target T4, human CD3 (human, UniProt P07766 23-207).
T4 construct: CD3 complex on human PBMC; also called human CD3 (PBMC); human CD3-expressing cells
As to the kind of experiment: flow cytometry on human PBMC (dead and CD19-positive cells excluded), Penta-His Alexa Fluor 488 detection, rMFI = MFI minus sample without antibody. The protocol: Commercially available human PBMC (Cellular Technology Limited) was adjusted to an appropriate concentration with PBS containing 5% FBS. LIVE/DEAD Fixable Near-IR Dead Cell Stain Kit (Thermo Fisher Scientific Inc.) and an anti-CD19 antibody (Beckman Coulter Inc.) were added to the cells, which were then left standing at 4° C. for 30 minutes. The cells were washed twice with PBS containing 5% FBS, then adjusted to a concentration of 1×10⁶ cells/mL with PBS containing 5% FBS, inoculated in an amount of 100 μL/well to a 96-well U-bottomed microplate, and centrifuged to remove a supernatant. Each anti-GPRC5D-anti-CD3 bispecific molecule (C2037-C3E7034 to C3022-C3E7036 prepared in Example 12) diluted with PBS containing 5% FBS were added thereto in an amount of 100 μL/well, and the plate was left standing at 4° C. for 60 minutes. The cells were washed twice with PBS containing 5% FBS. Then, Penta-His Alexa Fluor 488 (Qiagen N.V.) diluted with PBS containing 5% FBS was added thereto in an amount of 30 μL/well, and the plate was left standing at 4° C. for 30 minutes. […] The data was analyzed using Flowjo (Tree Star, Inc.). The mean fluorescence intensity (MFI) of Alexa Fluor 488 in a fraction free from dead cells and CD19-positive cells was calculated. […]

Test [7] deals with T5, cynomolgus monkey CD3 (cynomolgus monkey, UniProt Q95LI5 22-198).
T5 construct: whole, on cells; CD3 complex on cynomolgus monkey PBMC; also called cynomolgus monkey CD3 (PBMC); cynomolgus monkey CD3-expressing cells
As to the kind of experiment: flow cytometry on cynomolgus monkey PBMC, Penta-His Alexa Fluor 488 detection, rMFI = MFI minus sample without antibody.

T4 sequence (P07766 23-207 limits assumed): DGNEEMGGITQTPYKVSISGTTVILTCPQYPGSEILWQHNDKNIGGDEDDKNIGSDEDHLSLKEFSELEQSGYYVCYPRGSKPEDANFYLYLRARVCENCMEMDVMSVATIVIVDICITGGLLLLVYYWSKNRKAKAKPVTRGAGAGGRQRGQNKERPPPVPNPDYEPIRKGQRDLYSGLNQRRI
T5 sequence (Q95LI5 22-198): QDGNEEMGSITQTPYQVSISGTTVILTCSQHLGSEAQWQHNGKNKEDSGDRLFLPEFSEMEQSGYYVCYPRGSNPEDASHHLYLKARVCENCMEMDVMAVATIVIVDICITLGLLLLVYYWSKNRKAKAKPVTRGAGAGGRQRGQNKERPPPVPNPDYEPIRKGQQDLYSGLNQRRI

B1: human chimeric 2B1 (antibody, human IgG1, V domains shown)
VH: QVTLKESGPGILQPSQTLSLTCTFSGFSLNTYDMGVGWIRQPSGKGLEWLANIWWDDDKYYNPSLRNRLTISKDTSNNQAFLKITNVDTADTATYYCARIETVRVSRKGFAHWGQGTLVTVSS
VL: ETVMTQSPTSMSTSIGERVTLNCKASQSVGINVDWYQQTPGQSPKLLIYGASNRHTGVPDRFTGSGFGRDFTLTISNVEAEDLAVYYCLQHGSIPPTFGGGTKLELKR
notes: Human IgG1 / kappa constant regions
In general, EC50 (read off the curve) refers to the midpoint of the concentration-response curve. On to B1, for which the binding result in test [1] is “no binding”. Also, in test [2], the concentration giving a half-maximal response (EC50 (read off the curve)) is roughly 10 nM.

B2: humanized anti-GPRC5D antibody h2B1_H1/L2 (antibody, human IgG1, kappa, V domains shown)
VH: QVQLVESGGGLVKPSQTLSLTCTFSGFSLNTYDMGVGWIRQPPGKGLEWIGNIWWDDDKYYNPSLKSRVTISVDTSKNQASLKLSSVTAADTAVYYCARIETVRVSRKGFAHWGQGTLVTVSS
VL: DTVMTQSPDSLAVSLGERATINCKASQSVGINVDWYQQKPGQPPKLLIYGASNRHTGVPDRFSGSGFGTDFTLTISSLQAEDVAVYYCLQHGSIPPTFGQGTKVEIKR
notes: Human IgG1 / kappa
Turning to B2, the binding result in test [3] is “binds”. The 50% effective concentration (EC50 (read off the curve)) in test [4] was roughly 4 nM.

B3: anti-GPRC5D-anti-CD3 bispecific molecule C3022-C3E7034 (bispecific antibody)
scFv: GQVQLVQSGAEVKKPGASVKVSCKASGYTFTGYYMHWVRQAPGQGLEWMGRINPNSGGTNYAQKFQGRVTMTRDTSISTAYMELSGLRSDDTAVYYCASGSVRHPWGQGTLVTVSSGGGGSGGGGSGGGGSQPVLTQPPSASGTPGQRVTISCSGSRSNIGGNIVSWYQQFPGTAPRLLTYADNQRPSGVPDRFSGSKSGTSASLAISGLQSEDEADYYCAAWDDSLNGVVFGGGTKLTVLGGGGSEVQLVESGGGLVQPGGSLRLSCAASGVTFNYYGMSWIRQAPGKGLEWVASITNSGGRIYYPDSVKGRFTISRENTQKTLYLQMNSLRAEDTAVYYCTLDGRDGWVAYWGQGTLVTVSSGGGGSGGGGSGGGGSNFMLTQPHSVSESPGKTVTISCKRNTGNIGSNYVNWYQQHEGSSPTTIIYRDDKRPDGVSDRFSGSIDRSSKSASLTISNLKTEDEADYFCQSYSSGFIFGGGTKLTVLGAAAGAGGDYKDDDDKGAAAHHHHHH
notes: Tandem scFv
In the case of B3, the binding result in test [5] is “binds”. The entries for the “EC50 (read off the curve)” value in test [6] and in test [7] were roughly 0.3 nM and roughly 20 nM, respectively.
